Experimental data published in US7829082B2, “Catheter composition and uses thereof” (Genentech, Inc., priority 2001, dated 2010).
Values joined by “and” are separate entries in the source; they are usually repeats but may differ in a detail not shown here. Equal values may be shown once.

Columns and labels:
[1] = pH of tenecteplase dilutions; assay type: physicochemical; details: for observed pH: over 24 hours of storage at ambient conditions
Description: (§1) Tenecteplase (TNKASE™ variant of t-PA), obtained from Genentech, Inc. (e.g., U.S. Pat. No. 5,612,029) (50 mg/vial) was reconstituted to 5 mg/mL with 10 mL of SWFI. Using a 3 & 5 cc syringe and 22 G needle, 1, 2, and 5 mL of normal saline (NS) was removed from separate IV bags (500 mL NS, Baxter), in duplicates. The same volume was replaced with the reconstituted drug product to give a final tenecteplase concentration inside the bags of 0.01, 0.02, and 0.05 mg/mL. The bags were then mixed gently by inversions. A 10-mL aliquot of the diluted tenecteplase solution was sampled via the IV port with a 10-cc syringe and dispensed into two 5-cc clean clear glass vials (6 mL in one and the remaining in the other). The IV bags containing the diluted tenecteplase were placed on a bench top under normal fluorescent light at ambient conditions for 24 hours. Additional aliquots (10 mL each) from these IV bags were sampled after 8 and 24 hours of storage.
The pH determination was performed using a RADIOMETER PHM 93™ pH meter and a microelectrode (MI-410™, Microelectrode, Inc.). The pH meter was standardized with pH 4.01 and 7.00 buffer standards prior to measurement at ambient conditions.

[2] = target: T1, in vitro clot consisting of plasminogen and fibrin (Homo sapiens, UniProt P00747+P02671+P02675+P02679); assay: Clot lysis assay of tenecteplase; assay type: biochemical; details: for overall percent specific activity of the recovered protein: over 24 hours at ambient conditions; for Clot lysis (+cent): after centrifugation; for Clot lysis (−cent): before centrifugation
T1 construct: Plasminogen kept frozen at or below −60° C. until use; purchased Biocell (fibrinogen); Calbiochem (thrombin)
Source text: The assay works as follows: Reagents are substances added to a solution of another substance to participate in a chemical reaction. In this case, contents of boat 1 will react with contents of boat 2 to form a standardized clot. Thrombin (boat 2), when mixed with plasminogen and fibrinogen (boat 1), causes the conversion of fibrinogen to fibrin and forms a standardized in vitro clot consisting of plasminogen and fibrin. A test sample of t-PA is then exposed to the clot. T-PA causes the conversion of plasminogen to plasmin, and plasmin then breaks apart the fibrin strands. As the clot breaks apart, there is a change in the absorbance (light) characteristics. The absorbance is plotted versus time.
In such test, thrombin and fibrinogen are mixed together to produce fibrin; plasminogen and tenecteplase are mixed together to produce plasmin; and together the fibrin and plasmin lyse the clot. The test measures the effectiveness of tenecteplase to act with plasminogen to form plasmin and thus lyse the clot.
as §1
All the aliquots of tenecteplase were subjected to the clot lysis assay described above to determine the in vitro bioactivity of tenecteplase in these aliquots. The samples were diluted to two or three different concentrations within assay range (200-500 ng/mL) with the diluent. Tenecteplase was used as an internal reference. All values obtained were normalized to the tenecteplase reference material. The bioactivity was assayed by clot lysis before and after centrifugation.

[3] = Tenecteplase concentration by RP-HPLC before and after centrifugation; assay type: physicochemical; details: for Conc. (+cent) by RP-HPLC: after centrifugation; for Conc. (−cent) by RP-HPLC: before centrifugation
Description: as §1
The clot lysis activity and protein concentrations (determined by RP-HPLC) were performed before and after centrifugation of each sample aliquot. This was to ensure that any precipitation that was not visible to the naked eye was removed prior to assay for more accurate interpretation of the results. […] At 0.01 mg/mL, the percent change in concentration was 57% immediately after dilution and increased to 71% after 24 hours. […] This observation can be explained, without being limited to any one theory, by a more pronounced protein adsorption at a lower concentration that usually occurs instantly and saturates with time.

[4] = targeted conc. 0.01 mg/mL in 0.9% NaCl IV bag, T = 0
[5] = targeted conc. 0.01 mg/mL in 0.9% NaCl IV bag, T = 24 hours ambient
[6] = targeted conc. 0.02 mg/mL in 0.9% NaCl IV bag, T = 0
[7] = targeted conc. 0.02 mg/mL in 0.9% NaCl IV bag, T = 24 hours ambient
[8] = targeted conc. 0.05 mg/mL in 0.9% NaCl IV bag, T = 0
[9] = targeted conc. 0.05 mg/mL in 0.9% NaCl IV bag, T = 24 hours ambient
[10] = targeted conc. 0.01 mg/mL in 0.9% NaCl IV bag, T = 8 hours ambient
[11] = targeted conc. 0.02 mg/mL in 0.9% NaCl IV bag, T = 8 hours ambient
[12] = targeted conc. 0.05 mg/mL in 0.9% NaCl IV bag, T = 8 hours ambient

T1 sequence (P00747 20-810 limits assumed): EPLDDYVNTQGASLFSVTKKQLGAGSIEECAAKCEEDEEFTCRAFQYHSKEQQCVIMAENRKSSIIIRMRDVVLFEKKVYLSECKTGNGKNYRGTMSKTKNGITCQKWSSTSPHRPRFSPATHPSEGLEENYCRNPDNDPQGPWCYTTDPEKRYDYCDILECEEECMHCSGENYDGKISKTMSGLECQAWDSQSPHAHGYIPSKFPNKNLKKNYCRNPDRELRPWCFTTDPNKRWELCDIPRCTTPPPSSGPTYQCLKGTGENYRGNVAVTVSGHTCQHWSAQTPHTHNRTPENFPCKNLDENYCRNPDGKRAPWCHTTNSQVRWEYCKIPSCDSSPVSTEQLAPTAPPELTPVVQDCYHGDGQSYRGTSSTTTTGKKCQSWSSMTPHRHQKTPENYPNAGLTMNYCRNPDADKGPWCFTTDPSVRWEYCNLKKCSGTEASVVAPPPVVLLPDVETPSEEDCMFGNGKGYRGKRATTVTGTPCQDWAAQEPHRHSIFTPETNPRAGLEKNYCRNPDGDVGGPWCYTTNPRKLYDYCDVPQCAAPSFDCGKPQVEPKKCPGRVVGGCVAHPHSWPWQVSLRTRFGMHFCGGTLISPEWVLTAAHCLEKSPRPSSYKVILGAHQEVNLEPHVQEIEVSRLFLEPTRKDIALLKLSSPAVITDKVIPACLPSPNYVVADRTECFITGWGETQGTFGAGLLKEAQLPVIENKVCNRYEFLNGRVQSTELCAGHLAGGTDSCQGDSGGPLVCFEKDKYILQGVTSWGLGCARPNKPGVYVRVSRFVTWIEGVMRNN
T1 sequence (P02671 36-629 limits assumed): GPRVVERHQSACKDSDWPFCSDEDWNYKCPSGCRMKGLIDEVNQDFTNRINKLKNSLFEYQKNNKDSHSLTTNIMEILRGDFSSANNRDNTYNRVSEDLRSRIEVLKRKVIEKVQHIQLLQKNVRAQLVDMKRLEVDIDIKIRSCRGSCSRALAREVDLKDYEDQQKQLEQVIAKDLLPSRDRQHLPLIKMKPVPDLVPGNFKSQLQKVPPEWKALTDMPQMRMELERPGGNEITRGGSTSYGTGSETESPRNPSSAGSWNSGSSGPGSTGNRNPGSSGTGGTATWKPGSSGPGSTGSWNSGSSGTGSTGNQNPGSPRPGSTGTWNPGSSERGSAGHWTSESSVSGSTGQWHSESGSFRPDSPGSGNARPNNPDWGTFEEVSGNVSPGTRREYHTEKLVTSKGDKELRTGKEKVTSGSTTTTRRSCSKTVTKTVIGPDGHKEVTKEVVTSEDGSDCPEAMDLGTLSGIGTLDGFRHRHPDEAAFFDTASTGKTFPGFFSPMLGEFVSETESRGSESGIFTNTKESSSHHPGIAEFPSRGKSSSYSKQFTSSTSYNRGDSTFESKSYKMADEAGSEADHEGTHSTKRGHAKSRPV
T1 sequence (P02675 45-491 limits assumed): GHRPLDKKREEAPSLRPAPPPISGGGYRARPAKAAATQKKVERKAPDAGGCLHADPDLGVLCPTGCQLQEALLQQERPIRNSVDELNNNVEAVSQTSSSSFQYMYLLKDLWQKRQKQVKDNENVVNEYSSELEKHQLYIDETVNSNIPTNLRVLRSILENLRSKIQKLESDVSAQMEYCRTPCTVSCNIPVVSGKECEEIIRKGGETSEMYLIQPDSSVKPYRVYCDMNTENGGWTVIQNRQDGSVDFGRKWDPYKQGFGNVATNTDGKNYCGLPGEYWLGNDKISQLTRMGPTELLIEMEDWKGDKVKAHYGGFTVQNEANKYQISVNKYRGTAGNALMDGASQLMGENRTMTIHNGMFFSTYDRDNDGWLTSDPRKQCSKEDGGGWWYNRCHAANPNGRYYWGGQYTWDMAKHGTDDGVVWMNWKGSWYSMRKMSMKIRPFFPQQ
T1 sequence (P02679 27-437 isoform P02679-2 limits assumed): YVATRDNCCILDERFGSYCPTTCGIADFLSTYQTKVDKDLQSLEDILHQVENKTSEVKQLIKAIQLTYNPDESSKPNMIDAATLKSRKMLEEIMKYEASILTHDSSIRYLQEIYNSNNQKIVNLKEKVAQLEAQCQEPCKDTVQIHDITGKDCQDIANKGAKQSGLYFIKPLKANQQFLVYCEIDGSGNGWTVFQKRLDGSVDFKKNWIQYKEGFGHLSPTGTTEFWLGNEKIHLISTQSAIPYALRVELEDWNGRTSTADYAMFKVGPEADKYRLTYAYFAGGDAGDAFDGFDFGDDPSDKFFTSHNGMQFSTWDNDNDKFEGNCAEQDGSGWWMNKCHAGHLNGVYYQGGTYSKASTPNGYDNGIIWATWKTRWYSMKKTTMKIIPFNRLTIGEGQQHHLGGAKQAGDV

B1: Tenecteplase: a t-PA variant designated T103N, N117Q, K296A, H297A,R298A,R299A available as TNKASE™ brand from Genentech, Inc.; diluted in 0.9% NaCl (protein, UniProt P00750 36-562, looked up, variant T103N N117Q K296A H297A R298A R299A)
Tissue-type plasminogen …: SYQVICRDEKTQMIYQQHQSWLRPVLRSNRVEYCWCNSGRAQCHSVPVKSCSEPRCFNGGTCQQALYFSDFVCQCPEGFAGKCCEIDTRATCYEDQGISYRGNWSTAESGAECTNWQSSALAQKPYSGRRPDAIRLGLGNHNYCRNPDRDSKPWCYVFKAGKYSSEFCSTPACSEGNSDCYFGNGSAYRGTHSLTESGASCLPWNSMILIGKVYTAQNPSAQALGLGKHNYCRNPDGDAKPWCHVLKNRRLTWEYCDVPSCSTCGLRQYSQPQFRIKGGLFADIASHPWQAAIFAAAAASPGERFLCGGILISSCWILSAAHCFQERFPPHHLTVILGRTYRVVPGEEEQKFEVEKYIVHKEFDDDTYDNDIALLQLKSDSSRCAQESSVVRTVCLPPADLQLPDWTECELSGYGKHEALSPFYSERLKEAHVRLYPSSRCTSQHLLNRTVTDNMLCAGDTRSGGPQANLHDACQGDSGGPLVCLNDGRMTLVGIISWGLGCGQKDVPGVYTKVTNYLDWIRDNMRP
observed pH ([1]; 0.01 mg/mL in NS): 6.7-6.8
observed pH ([1]; 0.02 mg/mL in NS): 6.8-6.9
observed pH ([1]; 0.05 mg/mL in NS): 7.1-7.2
pH [1, 4]: 6.70 and 6.73
pH [1, 5]: 6.77 and 6.71
pH [1, 6]: 6.93 and 6.83
pH [1, 7]: 6.86 and 6.90
pH [1, 8]: 7.12 and 7.15
pH [1, 9]: 7.10 and 7.07
overall percent specific activity of the recovered protein ([2]; 0.01 mg/mL): ≥ 100%
overall percent specific activity of the recovered protein ([2]; 0.02 mg/mL): ≥ 92%
overall percent specific activity of the recovered protein ([2]; 0.05 mg/mL): ≥ 80%
Lytic activity in clot lysis effectiveness test ([2]; diluted down to 0.01 mg/mL in normal saline): lytically active
Lytic activity after storage ([2]; diluted to 0.01, 0.02, and 0.05% mg/mL in 0.9% NaCl IV bags (500 mL), after 24 hours of storage at ambient conditions): lytically active
% Specific Activity [2, 4]: 100%
Clot lysis (+cent) [2, 4]: 0.004 mg/mL
Clot lysis (−cent) [2, 4]: 0.006 mg/mL
% Specific Activity [2, 10]: 125% and 120%
Clot lysis (+cent) [2, 10]: 0.005 mg/mL and 0.006 mg/mL
Clot lysis (−cent) [2, 10]: 0.007 mg/mL and 0.008 mg/mL
% Specific Activity [2, 5]: 100% and 120%
Clot lysis (+cent) [2, 5]: 0.005 mg/mL and 0.006 mg/mL
Clot lysis (−cent) [2, 5]: 0.007 mg/mL
% Specific Activity [2, 6]: 92%
Clot lysis (+cent) [2, 6]: 0.012 mg/mL
Clot lysis (−cent) [2, 6]: 0.015 mg/mL
% Specific Activity [2, 11]: 92%
Clot lysis (+cent) [2, 11]: 0.012 mg/mL
Clot lysis (−cent) [2, 11]: 0.015 mg/mL and 0.013 mg/mL
% Specific Activity [2, 7]: 100% and 92%
Clot lysis (+cent) [2, 7]: 0.013 mg/mL and 0.012 mg/mL
Clot lysis (−cent) [2, 7]: 0.015 mg/mL and 0.016 mg/mL
% Specific Activity [2, 8]: 82% and 78%
Clot lysis (+cent) [2, 8]: 0.037 mg/mL and 0.036 mg/mL
Clot lysis (−cent) [2, 8]: 0.040 mg/mL and 0.041 mg/mL
% Specific Activity [2, 12]: 76% and 82%
Clot lysis (+cent) [2, 12]: 0.034 mg/mL and 0.037 mg/mL
Clot lysis (−cent) [2, 12]: 0.039 mg/mL
% Specific Activity [2, 9]: 93% and 91%
Clot lysis (+cent) [2, 9]: 0.040 mg/mL
Clot lysis (−cent) [2, 9]: 0.043 mg/mL
% Change in Conc. (±cent) [3, 4]: 57%
Conc. (+cent) by RP-HPLC [3, 4]: 0.004 mg/mL
Conc. (−cent) by RP-HPLC [3, 4]: 0.007 mg/mL
% Change in Conc. (±cent) [3, 10]: 57% and 63%
Conc. (+cent) by RP-HPLC [3, 10]: 0.004 mg/mL and 0.005 mg/mL
Conc. (−cent) by RP-HPLC [3, 10]: 0.007 mg/mL and 0.008 mg/mL
% Change in Conc. (±cent) [3, 5]: 71%
Conc. (+cent) by RP-HPLC [3, 5]: 0.005 mg/mL
Conc. (−cent) by RP-HPLC [3, 5]: 0.007 mg/mL
% Change in Conc. (±cent) [3, 6]: 76%
Conc. (+cent) by RP-HPLC [3, 6]: 0.013 mg/mL
Conc. (−cent) by RP-HPLC [3, 6]: 0.017 mg/mL
% Change in Conc. (±cent) [3, 11]: 81%
Conc. (+cent) by RP-HPLC [3, 11]: 0.013 mg/mL
Conc. (−cent) by RP-HPLC [3, 11]: 0.016 mg/mL
% Change in Conc. (±cent) [3, 7]: 81%
Conc. (+cent) by RP-HPLC [3, 7]: 0.013 mg/mL
Conc. (−cent) by RP-HPLC [3, 7]: 0.016 mg/mL
% Change in Conc. (±cent) [3, 8]: 94% and 98%
Conc. (+cent) by RP-HPLC [3, 8]: 0.045 mg/mL and 0.046 mg/mL
Conc. (−cent) by RP-HPLC [3, 8]: 0.048 mg/mL and 0.047 mg/mL
% Change in Conc. (±cent) [3, 12]: 96%
Conc. (+cent) by RP-HPLC [3, 12]: 0.045 mg/mL
Conc. (−cent) by RP-HPLC [3, 12]: 0.047 mg/mL
% Change in Conc. (±cent) [3, 9]: 90% and 96%
Conc. (+cent) by RP-HPLC [3, 9]: 0.043 mg/mL and 0.044 mg/mL
Conc. (−cent) by RP-HPLC [3, 9]: 0.0480 mg/mL and 0.0460 mg/mL
